In patent publication US20130109846A1 (published 2013):
Substitutions are numbered along the chain they refer to.

B1: 1h-119 (other)
VH: EVQLLESGGGLVQPGGSLRLSCAASGFTFTDRCMMWVRQAPGKGLEWVSSIQVEGNHTYYADSVKGRFTISRDNSKNTLYLQMNSLRAEDTAVYYCAKCMTVGPGNSFDYWGQGTLVTVSS
B2: 1h-115 (other)
VH: EVQLLESGGGLVQPGGSLRLSCAASGFTFSEYSMAWVRQAPGKGLEWVSHISRDGEFTYYADSVKGRFTISRDNSKNTLYLQMNSLRAEDTAVYYCAKGNADLGWVQPHLFVYWGQGTLVTVSS
B3: 1h-38 (other)
VL: DIQMTQSPSSLSASVGDRVTITCRASQPIGSVLAWYQQKPGKAPKLLIYFSSILQSGVPSRFSGSGSGTDFTLTISGLQPEDFATYYCQQALRSPFTFGQGTKVEIKR
B4: 1h-79-21 (other)
VL: B3 VL with S31H, V32S, L33F, F50W, S51A, I53T, G77S, A91M, S94T
B5: 1h-79-29 (other)
VL: B3 VL with S31H, V32S, A34G, F50W, S51A, I53M, G77S, A91M, S94T, T97A
B6: 1h-79-17 (other)
VL: B3 VL with S31H, V32S, F50W, S51A, I53T, G77S, A91M, S94T, T97A
B7: 1h-79-22 (other)
VL: B3 VL with S31H, V32S, F50W, S51A, I53M, G77S, A91M, S94T, T97S
B8: 1h-79-26 (other)
VL: B3 VL with S31H, V32S, A34G, F50W, S51A, I53M, G77S, A91M, S94T, T97S
B9: 1h-79-15 (other)
VL: B3 VL with S31H, V32S, A34G, F50W, S51A, I53T, L73I, G77S, A91M, S94T
B10: 1h-79-8 (other)
VL: B3 VL with S31H, V32S, A34G, F50W, S51A, I53T, G77S, A91M, S94T, T97M
B11: 1h-79-28 (other)
VL: B3 VL with S31H, V32S, A34G, F50W, S51A, I53M, G77S, A91M, S94T, T97M
B12: 1h-79-24 (other)
VL: B3 VL with S31H, V32S, A34G, F50W, S51A, I53T, G77S, A91M, S94T, T97A
B13: 1h-79-20 (other)
VL: B3 VL with I21V, S31H, V32S, F50W, S51A, I53M, G77S, A91M, S94T
B14: 1h-79-1505 (other)
VL: B3 VL with S31H, V32S, A34G, F50W, S51G, I53W, G77S, A91M, S94T
B15: 1h-35-7 (other)
VL: DIQMTQSPSSLSASVGDRVTITCRASQYIGSALGWYQQKPGKAPKLLIYRASNLQSGVPSRFSGSGYGTGFTLTISSLQPEDFATYYCQQLAIRPFTFGQGTKVEIKR
B16: 1h-75 (other)
VL: B15 VL with S31T, A32R, G34S, R50N, N53F, Y67S, G70D, I93L, R94S, F96L
B17: 1h-35-9 (other)
VL: B15 VL with L54M, Y67S, G70D
B18: 1h-74 (other)
VL: B15 VL with S31G, G34S, N53R, Y67S, G70D, L91V, I93L, R94V, F96Y
B19: 1h-114 (other)
VH: EVQLLESGGGLVQPGGSLRLSCAASGFTFASYSMAWVRQAPGKGLEWVSTIMPSGQRTYYADSVKGRFTISRDNSKNTLYLQMNSLRAEDTAVYYCAKNQSHQRRGIFDYWGQGTLVTVSS
B20: 1h-70 (other)
VL: DIQMTQSPSSLSASVGDRVTITCRASQSIGTGLRWYQQKPGKAPMLLIYRASILQSGVPSRFSGGGSGTDFTLTISSLQPEDFATYYCQQTWYRPYTFGQGTKVEIKR
B21: 1h-39 (other)
VL: DIQMTQSPSSLSASVGDRVTITCRASQYIGTALHWYQQKPGKAPRLLIYLSSNLQSGVPSRFSGSGSGTDFTLTISSLQPEDFATYYCQQSALNPYTFGQGTKVEIKR
B22: 1h-73 (other)
VL: B21 VL with A32Q, H34S, R45K, L50R, S51G, N53L, S91T, N94S
B23: 1h-69 (other)
VL: B20 VL with S28K, M45K, I53V, G65S, W92A, Y93F, R94P
B24: 1h-72 (other)
VL: DIQMTQSPSSLSASVGDRVTITCRASRSINHWLDWYQQKPGKAPTLLISGVSWLQSGVPSRFSGSGSGTDFTLTISSLQPEDFATYYCCQPGFRPCTFGQGTKVEIKR
B25: 1h-79-1 (other)
VL: DIQMTQSPSSLSASVGDRVTITCRASQPIGHSFGWYQQKPGKAPKLLIYWASTLQSGVPTRFSGSGSGTDFTLTISSLQPEDFATYYCQQMLRTPFTFGQGTKVEIKR
B26: 1h-79-30 (other)
VL: B25 VL with T53M, T60S, T97S
B27: 1h-79-807 (other)
VL: B25 VL with S32T, F33L, T53D, Q55I, S56R, T60S, T97M
B28: 1h-79-1519 (other)
VL: B25 VL with F33L, T53L, Q55L, S56D, T60S
B29: 1h-79-1512 (other)
VL: B25 VL with F33L, T53V, Q55L, S56H, T60S
B30: 1h-79-32 (other)
VL: B25 VL with T53M, T60S, T97A
B31: 1h-79-31 (other)
VL: B25 VL with T53M, T60S, T97M
B32: 1h-79-2 (other)
VL: B25 VL with I2T, Q27R, F33L, T53M, T60S
B33: 1h-79-802 (other)
VL: B25 VL with Q27T, F33L, T60S, T97M
B34: 1h-79-1520 (other)
VL: B25 VL with T20A, F33L, Q37E, A51S, T53V, Q55I, T60S
B35: 1h-79-808 (other)
VL: B25 VL with S32A, F33L, K45R, T60S, T97M
B36: 1h-79-806 (other)
VL: B25 VL with F33L, T53M, S56G, T60S, T97M
B37: 1h-79-809 (other)
VL: B25 VL with P28A, F33L, I48V, T60S, T97M
B38: 1h-71 (other)
VL: DIQMTQSPSSLSASVGDRVTITCRASRDIGHMLNWYQQKPGKAPKLLIWFGSVLQSGVPSRFSGSGSGTDFTLTISSLQPEDFATYYCVQGRLRPPTFGQGTKVEIKR
B39: 1h-36-6 (other)
VL: DIQMTQSPSSLSASVGDRVTITCRASRDIALDLLWYQLKPGKAPKLLIKGWSGLQSGVPSRFSGSGSGTDFTLTISSLQPEDFATYFCAQGWGRPVTFGQGTKVEIKR
B40: 1h-80-1 (other)
VL: DIQMTQSPSSLSASVGDRVTITCRASQRIGSNLAWYQQKPGRAPKLLIYWASLLQSGVPSRFSGSGSGTDFTLIISSLQPEDFATYYCQQTRSAPFAFGQGTKVEIKR
B41: 1h-99-2 40K linear PEG (other)
VH: EVQLLESGGGLVQPGGSLRLSCAASGFTFDSANMSWVRQAPGKGLEWVSWIEDTGTQTFYADSVKGRFTISRDNSKNTLYLQMNSLRAEDTAVYYCAKSPFGPLYGFDYRGQGTLVTVSS
modifications: 40K linear PEG; site of attachment not stated
B42: 1h-99-2 40K branched PEG (other)
VH: B41 VH
modifications: 40K branched PEG; site of attachment not stated

Molecular target: T1, human CD28 (human, UniProt P10747 19-220)
Assay: cell-based or functional assay

Row | Binder | Luciferase assay (EC50) [nM] | MLR assay (EC50) [nM]
1 | B1 | 2800 | 
2 | B2 | 4000 | > 7000
3 | B3 | 650 | 725
4 | B4 | 3000 | 
5 | B5 | 43 | 150
6 | B6 | 2500 | 
7 | B7 | 750 | 
8 | B8 | 62 | 38
9 | B9 | 40 | 268
10 | B10 | 240 | 
11 | B11 | 40 | 109
12 | B12 | 331 | 295
13 | B13 | 1800 | 
14 | B14 | 103 | 
15 | B15 | 79 | 270
16 | B16 | 5700 | 
17 | B17 | 278 | 318
18 | B18 | 1300 | 
19 | B19 | 3100 | 
20 | B20 | 6600 | 

Row | Binder | Luciferase assay (EC50) [nM] | MLR assay (EC50) [nM]
21 | B21 | 1300 | 
22 | B22 | 4900 | 
23 | B23 | > 7000 | 
24 | B24 | 3400 | 
25 | B25 | 418000 | 2100
26 | B26 | 224 | 126
27 | B27 | 31 | 53
28 | B28 | 97 | 37
29 | B29 | 19 | 9
30 | B30 | 68 | 
31 | B31 | 141 | 103
32 | B32 | 166 | 
33 | B33 | 421 | 48
34 | B34 | 113 | 68
35 | B35 | 560 | 
36 | B36 | 40 | 26
37 | B37 | 592 | 
38 | B38 | 3500 | 
39 | B39 | 162 | 260
40 | B40 | 366 | 438

Molecular target: T1, human CD28
Assay: cell-based or functional assay
Remark: another data set of the same source

Row | Binder | DC-MLR Assay (EC50 nM) [nM] | Luciferase assay (EC50 nM) [nM]
41 | B41 | 390 | 100
42 | B42 | 383 | 117
